The target in this assay is T1, ETA, wild type, as used in the size exclusion chromatography analysis with Fab301 (Homo sapiens, UniProt P25101).
T1 construct: endothelin receptor type A (ETA), human; Probably one of the insect cell constructs m1 or m3; also called WT; WT ETA
The assay is described as follows: SEC; retention time of each ETA ECL2 alanine mutant–Fab301 complex against the WT–Fab301 complex. (In general: Size exclusion chromatography separates by hydrodynamic size, large species first.)

This is an account of results in paper PMC11286772, “Structural basis of antagonist selectivity in endothelin receptors” (Cell Discovery, 2024).

T1 sequence (P25101 21-427): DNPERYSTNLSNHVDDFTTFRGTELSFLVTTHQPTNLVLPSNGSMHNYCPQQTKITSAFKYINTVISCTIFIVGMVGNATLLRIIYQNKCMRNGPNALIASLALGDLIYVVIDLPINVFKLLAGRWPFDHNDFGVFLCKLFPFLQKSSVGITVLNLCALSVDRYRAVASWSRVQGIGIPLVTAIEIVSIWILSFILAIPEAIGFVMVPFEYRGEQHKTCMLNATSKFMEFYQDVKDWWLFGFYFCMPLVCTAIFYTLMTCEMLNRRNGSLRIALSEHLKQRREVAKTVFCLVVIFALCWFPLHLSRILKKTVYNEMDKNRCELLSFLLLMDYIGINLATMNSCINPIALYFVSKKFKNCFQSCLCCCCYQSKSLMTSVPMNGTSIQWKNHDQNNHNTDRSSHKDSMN

B1: Fab301, Fab fragment of the anti-ETA monoclonal antibody Getagozumab (Fab, V domains shown)
VH: QVTLKESGPTLVKPTQTLTLTCTFSGFSLTTSGLGVAWIRQPPGKALEWLAHIWSDGDTRYYPALKNRLTITKDTSKNQVVLTMTNMDPVDTATYYCAHMKDDSLYFDNWGQGTLVTVSS
VL: EIVLTQSPDFQSVTPKEKVTITCRASQNIGTSIHWYQQKPDQYPKLLIKYASKSISGVPSRFSGSGSGTDFTLTINSLEAEDAATYYCQHSYSFPWTFGQGTKVEIK
notes: Purified on Ni-NTA, so one chain probably carries a His tag; In the ambrisentan and zibotentan maps the dynamic regions of Fab301 were masked out; also called ETA-specific antibody; Getagozumab Fab; source: Hi5 insect cells, baculovirus (pFastBac Dual), from the culture supernatant, purified (Ni-NTA, Superdex 200)
Consider B1, for which the binding result is on record as “binds”.
